T1: formyl peptide receptor 2 (FPR2) (UniProt P25090 1-351, limits assumed)
T1 sequence (looked up): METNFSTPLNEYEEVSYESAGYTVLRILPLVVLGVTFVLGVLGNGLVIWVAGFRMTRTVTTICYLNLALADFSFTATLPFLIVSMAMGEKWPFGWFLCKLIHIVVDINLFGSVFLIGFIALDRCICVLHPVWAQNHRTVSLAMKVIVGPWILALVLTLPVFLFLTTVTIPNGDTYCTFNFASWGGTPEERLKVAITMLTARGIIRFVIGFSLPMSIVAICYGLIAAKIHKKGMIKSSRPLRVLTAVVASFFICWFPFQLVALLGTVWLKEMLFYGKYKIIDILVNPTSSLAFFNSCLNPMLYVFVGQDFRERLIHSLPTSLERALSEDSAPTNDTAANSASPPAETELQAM

T2: FPR1 (UniProt P21462 1-350, limits assumed)
T2 sequence (looked up): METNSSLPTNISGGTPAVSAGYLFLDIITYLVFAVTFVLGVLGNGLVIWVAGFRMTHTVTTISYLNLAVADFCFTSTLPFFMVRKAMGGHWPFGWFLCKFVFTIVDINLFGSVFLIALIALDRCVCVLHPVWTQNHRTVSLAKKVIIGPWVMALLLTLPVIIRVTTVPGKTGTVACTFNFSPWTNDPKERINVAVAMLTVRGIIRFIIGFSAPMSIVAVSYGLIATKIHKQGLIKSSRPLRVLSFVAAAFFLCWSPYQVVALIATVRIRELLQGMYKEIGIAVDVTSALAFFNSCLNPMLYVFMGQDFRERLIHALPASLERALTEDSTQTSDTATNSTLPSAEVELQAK


Legend:
[1] = biological target: T1, formyl peptide receptor 2 (FPR2); test: cell-based or functional assay
FPR1 = biological target: T2, FPR1; test: cell-based or functional assay

Row | Binder | EC50 for [Ca2+] [1] | EC50 for [Ca2+] (FPR1)
1 | RWRYKVM (HELM PEPTIDE1{R.W.R.Y.K.V.[dM].[am]}$$$$V2.0; N-terminus assumed; SMILES CSCC[C@@H](NC(=O)[C@@H](NC(=O)[C@H](CCCCN)NC(=O)[C@H](Cc1ccc(O)cc1)NC(=O)[C@H](CCCNC(=N)N)NC(=O)[C@H](Cc1c[nH]c2ccccc12)NC(=O)[C@@H](N)CCCNC(=N)N)C(C)C)C(N)=O) [peptide of SEQ ID NO 1] | < 10 nM | > 10000 nM
2 | RMRYWPM (HELM PEPTIDE1{[CCCC(=O)[*:2]].R.M.R.Y.W.P.[dM].[am]}$$$$V2.0; SMILES CCCC(=O)N[C@@H](CCCNC(=N)N)C(=O)N[C@@H](CCSC)C(=O)N[C@@H](CCCNC(=N)N)C(=O)N[C@@H](Cc1ccc(O)cc1)C(=O)N[C@@H](Cc1c[nH]c2ccccc12)C(=O)N1CCC[C@H]1C(=O)N[C@H](CCSC)C(N)=O) [peptide of SEQ ID NO 108] | < 10 nM | –
3 | RMRYWPM (HELM PEPTIDE1{[CCCCCCCC(=O)[*:2]].R.M.R.Y.W.P.[dM].[am]}$$$$V2.0; SMILES CCCCCCCC(=O)N[C@@H](CCCNC(=N)N)C(=O)N[C@@H](CCSC)C(=O)N[C@@H](CCCNC(=N)N)C(=O)N[C@@H](Cc1ccc(O)cc1)C(=O)N[C@@H](Cc1c[nH]c2ccccc12)C(=O)N1CCC[C@H]1C(=O)N[C@H](CCSC)C(N)=O) [peptide of SEQ ID NO 109] | < 10 nM | –
4 | MRYWPM (HELM PEPTIDE1{M.R.Y.W.P.[dM].[am]}$$$$V2.0; N-terminus assumed; SMILES CSCC[C@H](N)C(=O)N[C@@H](CCCNC(=N)N)C(=O)N[C@@H](Cc1ccc(O)cc1)C(=O)N[C@@H](Cc1c[nH]c2ccccc12)C(=O)N1CCC[C@H]1C(=O)N[C@H](CCSC)C(N)=O) [peptide of SEQ ID NO 110] | < 10 nM | –
5 | MRYWPM (HELM PEPTIDE1{[ac].M.R.Y.W.P.[dM].[am]}$$$$V2.0; SMILES CSCC[C@H](NC(C)=O)C(=O)N[C@@H](CCCNC(=N)N)C(=O)N[C@@H](Cc1ccc(O)cc1)C(=O)N[C@@H](Cc1c[nH]c2ccccc12)C(=O)N1CCC[C@H]1C(=O)N[C@H](CCSC)C(N)=O) [peptide of SEQ ID NO 111] | < 10 nM | –
6 | MRYWPM (HELM PEPTIDE1{[CCCC(=O)[*:2]].M.R.Y.W.P.[dM].[am]}$$$$V2.0; SMILES CCCC(=O)N[C@@H](CCSC)C(=O)N[C@@H](CCCNC(=N)N)C(=O)N[C@@H](Cc1ccc(O)cc1)C(=O)N[C@@H](Cc1c[nH]c2ccccc12)C(=O)N1CCC[C@H]1C(=O)N[C@H](CCSC)C(N)=O) [peptide of SEQ ID NO 112] | < 10 nM | –
7 | MKYWPM (HELM PEPTIDE1{M.K.Y.W.P.[dM].[am]}$$$$V2.0; N-terminus assumed; SMILES CSCC[C@H](N)C(=O)N[C@@H](CCCCN)C(=O)N[C@@H](Cc1ccc(O)cc1)C(=O)N[C@@H](Cc1c[nH]c2ccccc12)C(=O)N1CCC[C@H]1C(=O)N[C@H](CCSC)C(N)=O) [peptide of SEQ ID NO 113] | < 10 nM | –
8 | MKYWPM (HELM PEPTIDE1{[ac].M.K.Y.W.P.[dM].[am]}$$$$V2.0; SMILES CSCC[C@H](NC(C)=O)C(=O)N[C@@H](CCCCN)C(=O)N[C@@H](Cc1ccc(O)cc1)C(=O)N[C@@H](Cc1c[nH]c2ccccc12)C(=O)N1CCC[C@H]1C(=O)N[C@H](CCSC)C(N)=O) [peptide of SEQ ID NO 114] | < 10 nM | –
9 | MKYWPM (HELM PEPTIDE1{[CCCC(=O)[*:2]].M.K.Y.W.P.[dM].[am]}$$$$V2.0; SMILES CCCC(=O)N[C@@H](CCSC)C(=O)N[C@@H](CCCCN)C(=O)N[C@@H](Cc1ccc(O)cc1)C(=O)N[C@@H](Cc1c[nH]c2ccccc12)C(=O)N1CCC[C@H]1C(=O)N[C@H](CCSC)C(N)=O) [peptide of SEQ ID NO 115] | < 10 nM | –
10 | RWRYWPM (HELM PEPTIDE1{[ac].R.W.R.Y.W.P.[dM].[am]}$$$$V2.0; SMILES CSCC[C@@H](NC(=O)[C@@H]1CCCN1C(=O)[C@H](Cc1c[nH]c2ccccc12)NC(=O)[C@H](Cc1ccc(O)cc1)NC(=O)[C@H](CCCNC(=N)N)NC(=O)[C@H](Cc1c[nH]c2ccccc12)NC(=O)[C@H](CCCNC(=N)N)NC(C)=O)C(N)=O) [peptide of SEQ ID NO 117] | < 10 nM | –
11 | WRYWPM (HELM PEPTIDE1{W.R.Y.W.P.[dM].[am]}$$$$V2.0; N-terminus assumed; SMILES CSCC[C@@H](NC(=O)[C@@H]1CCCN1C(=O)[C@H](Cc1c[nH]c2ccccc12)NC(=O)[C@H](Cc1ccc(O)cc1)NC(=O)[C@H](CCCNC(=N)N)NC(=O)[C@@H](N)Cc1c[nH]c2ccccc12)C(N)=O) [peptide of SEQ ID NO 118] | < 10 nM | –
12 | RMRYYPM (HELM PEPTIDE1{[ac].R.M.R.Y.Y.P.[dM].[am]}$$$$V2.0; SMILES CSCC[C@H](NC(=O)[C@H](CCCNC(=N)N)NC(C)=O)C(=O)N[C@@H](CCCNC(=N)N)C(=O)N[C@@H](Cc1ccc(O)cc1)C(=O)N[C@@H](Cc1ccc(O)cc1)C(=O)N1CCC[C@H]1C(=O)N[C@H](CCSC)C(N)=O) [peptide of SEQ ID NO 119] | < 10 nM | –
13 | MRYYPM (HELM PEPTIDE1{M.R.Y.Y.P.[dM].[am]}$$$$V2.0; N-terminus assumed; SMILES CSCC[C@H](N)C(=O)N[C@@H](CCCNC(=N)N)C(=O)N[C@@H](Cc1ccc(O)cc1)C(=O)N[C@@H](Cc1ccc(O)cc1)C(=O)N1CCC[C@H]1C(=O)N[C@H](CCSC)C(N)=O) [peptide of SEQ ID NO 120] | < 10 nM | –
14 | RWRYYPM (HELM PEPTIDE1{[ac].R.W.R.Y.Y.P.[dM].[am]}$$$$V2.0; SMILES CSCC[C@@H](NC(=O)[C@@H]1CCCN1C(=O)[C@H](Cc1ccc(O)cc1)NC(=O)[C@H](Cc1ccc(O)cc1)NC(=O)[C@H](CCCNC(=N)N)NC(=O)[C@H](Cc1c[nH]c2ccccc12)NC(=O)[C@H](CCCNC(=N)N)NC(C)=O)C(N)=O) [peptide of SEQ ID NO 121] | < 10 nM | –
15 | WRYYPM (HELM PEPTIDE1{[ac].W.R.Y.Y.P.[dM].[am]}$$$$V2.0; SMILES CSCC[C@@H](NC(=O)[C@@H]1CCCN1C(=O)[C@H](Cc1ccc(O)cc1)NC(=O)[C@H](Cc1ccc(O)cc1)NC(=O)[C@H](CCCNC(=N)N)NC(=O)[C@H](Cc1c[nH]c2ccccc12)NC(C)=O)C(N)=O) [peptide of SEQ ID NO 122] | < 10 nM | –
16 | MRYKVM (HELM PEPTIDE1{[ac].M.R.Y.K.V.[dM].[am]}$$$$V2.0; SMILES CSCC[C@H](NC(C)=O)C(=O)N[C@@H](CCCNC(=N)N)C(=O)N[C@@H](Cc1ccc(O)cc1)C(=O)N[C@@H](CCCCN)C(=O)N[C@H](C(=O)N[C@H](CCSC)C(N)=O)C(C)C) [peptide of SEQ ID NO 14] | < 10 nM | –
17 | IKYKVM (HELM PEPTIDE1{[CCCCCCCC(=O)[*:2]].I.K.Y.K.V.[dM].[am]}$$$$V2.0; SMILES CCCCCCCC(=O)N[C@H](C(=O)N[C@@H](CCCCN)C(=O)N[C@@H](Cc1ccc(O)cc1)C(=O)N[C@@H](CCCCN)C(=O)N[C@H](C(=O)N[C@H](CCSC)C(N)=O)C(C)C)[C@@H](C)CC) [peptide of SEQ ID NO 137] | < 10 nM | –
18 | HKYWPM (HELM PEPTIDE1{[ac].H.K.Y.W.P.[dM].[am]}$$$$V2.0; SMILES CSCC[C@@H](NC(=O)[C@@H]1CCCN1C(=O)[C@H](Cc1c[nH]c2ccccc12)NC(=O)[C@H](Cc1ccc(O)cc1)NC(=O)[C@H](CCCCN)NC(=O)[C@H](Cc1c[nH]cn1)NC(C)=O)C(N)=O) [peptide of SEQ ID NO 150] | < 10 nM | –
19 | HKYWPM (HELM PEPTIDE1{[CCCC(=O)[*:2]].H.K.Y.W.P.[dM].[am]}$$$$V2.0; SMILES CCCC(=O)N[C@@H](Cc1c[nH]cn1)C(=O)N[C@@H](CCCCN)C(=O)N[C@@H](Cc1ccc(O)cc1)C(=O)N[C@@H](Cc1c[nH]c2ccccc12)C(=O)N1CCC[C@H]1C(=O)N[C@H](CCSC)C(N)=O) [peptide of SEQ ID NO 151] | < 10 nM | –
20 | HMRYRVM (HELM PEPTIDE1{H.M.R.Y.R.V.[dM].[am]}$$$$V2.0; N-terminus assumed; SMILES CSCC[C@H](NC(=O)[C@@H](N)Cc1c[nH]cn1)C(=O)N[C@@H](CCCNC(=N)N)C(=O)N[C@@H](Cc1ccc(O)cc1)C(=O)N[C@@H](CCCNC(=N)N)C(=O)N[C@H](C(=O)N[C@H](CCSC)C(N)=O)C(C)C) [peptide of SEQ ID NO 31] | < 10 nM | –
